Measurements from article PMC10397247.

What was measured:
4H575-bN = target: T1, 4H575-bN; assay: two-hybrid library CCNG1;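 also: natural log of median RNA to DNA barcode read ratio; higher means stronger binding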
T1 chain: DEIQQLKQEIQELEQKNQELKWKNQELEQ

4H4073-bN = target: T2, 4H4073-bN; assay: two-hybrid library CCNG1;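 also: natural log of median RNA to DNA barcode read ratio; higher means stronger binding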
T2 chain: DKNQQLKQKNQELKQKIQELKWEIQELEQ

4H346-bN = target: T3, 4H346-bN; assay: two-hybrid library CCNG1;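 also: natural log of median RNA to DNA barcode read ratio; higher means stronger binding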
T3 chain: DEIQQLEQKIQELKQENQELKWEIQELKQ

4H683-bN = target: T4, 4H683-bN; assay: two-hybrid library CCNG1;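 also: natural log of median RNA to DNA barcode read ratio; higher means stronger binding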
T4 chain: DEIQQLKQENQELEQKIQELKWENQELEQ

4H855-bN = target: T5, 4H855-bN; assay: two-hybrid library CCNG1;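 also: natural log of median RNA to DNA barcode read ratio; higher means stronger binding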
T5 chain: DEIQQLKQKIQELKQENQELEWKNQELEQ

4H797-bN = target: T6, 4H797-bN; assay: two-hybrid library CCNG1;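 also: natural log of median RNA to DNA barcode read ratio; higher means stronger binding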
T6 chain: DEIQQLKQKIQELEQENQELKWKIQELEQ

4H953-bN = target: T7, 4H953-bN; assay: two-hybrid library CCNG1
T7 chain: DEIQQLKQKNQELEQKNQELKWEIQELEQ

4H3172-bN = target: T8, 4H3172-bN; assay: two-hybrid library CCNG1
T8 chain: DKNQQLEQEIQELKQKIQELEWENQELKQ

4H331-bN = target: T9, 4H331-bN; assay: two-hybrid library CCNG1
T9 chain: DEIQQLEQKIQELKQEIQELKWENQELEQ

4H908-bN = target: T10, 4H908-bN; assay: two-hybrid library CCNG1
T10 chain: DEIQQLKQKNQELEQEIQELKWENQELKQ

4H717-bN = target: T11, 4H717-bN; assay: two-hybrid library CCNG1
T11 chain: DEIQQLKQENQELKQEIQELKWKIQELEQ

4H780-bN = target: T12, 4H780-bN; assay: two-hybrid library CCNG1
T12 chain: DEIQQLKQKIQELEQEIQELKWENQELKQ

4H3855-bN = target: T13, 4H3855-bN; assay: two-hybrid library CCNG1
T13 chain: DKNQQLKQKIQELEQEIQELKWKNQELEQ

4H3129-bH = target: T14, 4H3129-bH; assay: two-hybrid library CCNG1
T14 chain: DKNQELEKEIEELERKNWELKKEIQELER

4H968-bN = target: T15, 4H968-bN; assay: two-hybrid library CCNG1
T15 chain: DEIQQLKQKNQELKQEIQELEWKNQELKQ

4H607-bN = target: T16, 4H607-bN; assay: two-hybrid library CCNG1
T16 chain: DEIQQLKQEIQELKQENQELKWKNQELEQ

4H3185-bN = target: T17, 4H3185-bN; assay: two-hybrid library CCNG1
T17 chain: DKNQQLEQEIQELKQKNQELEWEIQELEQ

4H687-bN = target: T18, 4H687-bN; assay: two-hybrid library CCNG1
T18 chain: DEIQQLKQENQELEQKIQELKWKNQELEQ

4H883-bN = target: T19, 4H883-bN; assay: two-hybrid library CCNG1
T19 chain: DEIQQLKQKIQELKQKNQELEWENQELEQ

4H3112-bN = target: T20, 4H3112-bN; assay: two-hybrid library CCNG1
T20 chain: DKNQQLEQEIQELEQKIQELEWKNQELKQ

4H454-bN = target: T21, 4H454-bN; assay: two-hybrid library CCNG1
T21 chain: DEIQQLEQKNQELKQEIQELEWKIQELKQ

4H967-bN = target: T22, 4H967-bN; assay: two-hybrid library CCNG1
T22 chain: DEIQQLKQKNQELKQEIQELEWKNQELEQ

4H918-bN = target: T23, 4H918-bN; assay: two-hybrid library CCNG1
T23 chain: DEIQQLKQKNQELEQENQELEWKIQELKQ

4H4001-bN = target: T24, 4H4001-bN; assay: two-hybrid library CCNG1
T24 chain: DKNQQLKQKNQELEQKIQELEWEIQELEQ

4H457-bN = target: T25, 4H457-bN; assay: two-hybrid library CCNG1
T25 chain: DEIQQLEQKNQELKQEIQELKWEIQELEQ

4H3354-bN = target: T26, 4H3354-bN; assay: two-hybrid library CCNG1
T26 chain: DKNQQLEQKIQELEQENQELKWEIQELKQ

4H754-bN = target: T27, 4H754-bN; assay: two-hybrid library CCNG1
T27 chain: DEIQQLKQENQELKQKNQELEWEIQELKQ

4H72-bN = target: T28, 4H72-bN; assay: two-hybrid library CCNG1
T28 chain: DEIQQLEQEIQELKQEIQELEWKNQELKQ

4H3427-bN = target: T29, 4H3427-bN; assay: two-hybrid library CCNG1
T29 chain: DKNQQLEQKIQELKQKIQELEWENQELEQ

4H568-bN = target: T30, 4H568-bN; assay: two-hybrid library CCNG1
T30 chain: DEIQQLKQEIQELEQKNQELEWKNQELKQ

4H338-bN = target: T31, 4H338-bN; assay: two-hybrid library CCNG1
T31 chain: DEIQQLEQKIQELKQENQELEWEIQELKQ

4H3782-bN = target: T32, 4H3782-bN; assay: two-hybrid library CCNG1
T32 chain: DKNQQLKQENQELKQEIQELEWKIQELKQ

4H3817-bH = target: T33, 4H3817-bH; assay: two-hybrid library CCNG1
T33 chain: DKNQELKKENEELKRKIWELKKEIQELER

4H3926-bN = target: T34, 4H3926-bN; assay: two-hybrid library CCNG1
T34 chain: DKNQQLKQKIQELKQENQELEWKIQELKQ

4H55-AA = target: T35, 4H55-AA; assay: two-hybrid library CCmax; details: mean of both orientations
T35 chain: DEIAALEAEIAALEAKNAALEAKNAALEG

4H4033-AA = target: T36, 4H4033-AA; assay: two-hybrid library CCmax; details: mean of both orientations
T36 chain: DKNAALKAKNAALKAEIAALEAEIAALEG

4H662-AA = target: T37, 4H662-AA; assay: two-hybrid library CCmax; details: mean of both orientations
T37 chain: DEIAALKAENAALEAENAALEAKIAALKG

4H481-AA = target: T38, 4H481-AA; assay: two-hybrid library CCmax; details: mean of both orientations
T38 chain: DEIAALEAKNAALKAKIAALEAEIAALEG

4H2614-AA = target: T39, 4H2614-AA; assay: two-hybrid library CCmax; details: mean of both orientations
T39 chain: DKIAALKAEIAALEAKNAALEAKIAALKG

4H3922-AA = target: T40, 4H3922-AA; assay: two-hybrid library CCmax; details: mean of both orientations
T40 chain: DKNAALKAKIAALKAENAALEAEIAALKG

4H3605-AA = target: T41, 4H3605-AA; assay: two-hybrid library CCmax; details: mean of both orientations
T41 chain: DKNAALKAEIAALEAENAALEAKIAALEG

4H327-AA = target: T42, 4H327-AA; assay: two-hybrid library CCmax; details: mean of both orientations
T42 chain: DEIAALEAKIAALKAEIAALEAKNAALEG

4H3625-AA = target: T43, 4H3625-AA; assay: two-hybrid library CCmax; details: mean of both orientations
T43 chain: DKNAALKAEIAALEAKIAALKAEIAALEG

4H2608-AA = target: T44, 4H2608-AA; assay: two-hybrid library CCmax; details: mean of both orientations
T44 chain: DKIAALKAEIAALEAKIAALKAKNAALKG

4H2726-AA = target: T45, 4H2726-AA; assay: two-hybrid library CCmax; details: mean of both orientations
T45 chain: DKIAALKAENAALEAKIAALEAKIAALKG

4H369-AA = target: T46, 4H369-AA; assay: two-hybrid library CCmax
T46 chain: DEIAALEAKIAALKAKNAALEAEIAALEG

4H2536-AA = target: T47, 4H2536-AA; assay: two-hybrid library CCmax
T47 chain: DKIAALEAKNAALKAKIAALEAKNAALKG

4H2935-AA = target: T48, 4H2935-AA; assay: two-hybrid library CCmax; details: mean of both orientations
T48 chain: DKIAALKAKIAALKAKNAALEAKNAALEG

O3-AA = target: T49, O3-AA; assay: two-hybrid library CCmax
T49 chain: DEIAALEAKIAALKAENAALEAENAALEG

4H3664-AA = target: T50, 4H3664-AA; assay: two-hybrid library CCmax; details: mean of both orientations
T50 chain: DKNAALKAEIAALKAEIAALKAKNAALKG

B1: 4H3112-bN (peptide)
chain: DKNQQLEQEIQELEQKIQELEWKNQELKQ
interaction score (4H575-bN): -1.34 | interaction score (4H4073-bN): -0.28 | interaction score (4H346-bN): 0.282 | interaction score (4H683-bN): 0.347 | interaction score (4H855-bN): 0.606 | interaction score (4H797-bN): -0.676 | interaction score (4H953-bN): 0.0741 | interaction score (4H3172-bN): 0.00481 | interaction score (4H331-bN): -0.918 | interaction score (4H908-bN): 0.308 | interaction score (4H717-bN): -1.88 | interaction score (4H780-bN): -0.0911 | interaction score (4H3855-bN): -0.962 | interaction score (4H3129-bH): -0.762 | interaction score (4H968-bN): -0.158 | interaction score (4H607-bN): 0.634 | interaction score (4H3185-bN): -1.11 | interaction score (4H687-bN): -1.66 | interaction score (4H883-bN): 1.54 | interaction score (4H3112-bN): -0.426 | interaction score (4H454-bN): 0.745 | interaction score (4H967-bN): -1.11 | interaction score (4H918-bN): 0.0994 | interaction score (4H4001-bN): -0.255 | interaction score (4H457-bN): -0.526 | interaction score (4H3354-bN): 0.377 | interaction score (4H754-bN): -1.34 | interaction score (4H72-bN): -0.5 | interaction score (4H3427-bN): 0.996 | interaction score (4H568-bN): 0.078 | interaction score (4H338-bN): -0.816 | interaction score (4H3782-bN): -0.541 | interaction score (4H3817-bH): -0.521 | interaction score (4H3926-bN): 0.154

B2: 4H2536-AA (peptide)
chain: DKIAALEAKNAALKAKIAALEAKNAALKG
interaction score (4H55-AA): -1.17 | interaction score (4H4033-AA): -1.47 | interaction score (4H662-AA): -1.33 | interaction score (4H481-AA): -0.0556 | interaction score (4H2614-AA): -1.61 | interaction score (4H3922-AA): 0.635 | interaction score (4H3605-AA): 1.29 | interaction score (4H327-AA): -1.02 | interaction score (4H3625-AA): -1.16 | interaction score (4H2608-AA): -0.457 | interaction score (4H2726-AA): 1.39 | interaction score (4H369-AA): 0.0403 | interaction score (4H2536-AA): -0.663 | interaction score (4H2935-AA): -1.66 | interaction score (O3-AA): -1.65 | interaction score (4H3664-AA): -1.51
